How the values were obtained:
[1] = biological target: UbcH7˜125I-ubiquitin thioester, P68036
Sequence of UbcH7˜125I-ubiquitin thioester, P68036 (P68036 whole entry, looked up): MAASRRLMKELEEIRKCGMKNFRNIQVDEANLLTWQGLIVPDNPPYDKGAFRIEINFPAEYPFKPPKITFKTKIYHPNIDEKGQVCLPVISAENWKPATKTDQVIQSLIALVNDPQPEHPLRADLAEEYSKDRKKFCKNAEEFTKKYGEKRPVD

B1: GST-E6APK688A (protein)
chain: MATACKRSGEPQSDDIEASRMKRAAAKHLIERYYHQLTEGCGNEACTNEFCASCPTFLRMDNNAAAIKALELYKINAKLCDPHPSKKGASSAYLENSKGAPNNSCSEIKMNKKGARIDFKDVTYLTEEKVYEILELCREREDYSPLIRVIGRVFSSAEALVQSFRKVKQHTKEELKSLQAKDEDKDEDEKEKAACSAAAMEEDSEASSSRIGDSSQGDNNLQKLGPDDVSVDIDAIRRVYTRLLSNEKIETAFLNALVYLSPNVECDLTYHNVYSRDPNYLNLFIIVMENRNLHSPEYLEMALPLFCKAMSKLPLAAQGKLIRLWSKYNADQIRRMMETFQQLITYKVISNEFNSRNLVNDDDAIVAASKCLKMVYYANVVGGEVDTNHNEEDDEEPIPESSELTLQELLGEERRNKKGPRVDPLETELGVKTLDCRKPLIPFEEFINEPLNEVLEMDKDYTFFKVETENKFSFMTCPFILNAVTKNLGLYYDNRIRMYSERRITVLYSLVQGQQLNPYLRLKVRRDHIIDDALVRLEMIAMENPADLKKQLYVEFEGEQGVDEGGVSKEFFQLVVEEIFNPDIGMFTYDESTKLFWFNPSSFETEGQFTLIGIVLGLAIYNNCILDVHFPMVVYRKLMGKKGTFRDLGDSHPVLYQSLKDLLEYEGNVEDDMMITFQISQTDLFGNPMMYDLKENGDKIPITNENRAEFVNLYSDYILNKSVEKQFKAFRRGFHMVTNESPLKYLFRPEEIELLICGSRNLDFQALEETTEYDGGYTRDSVLIREFWEIVHSFTDEQKRLFLQFTTGTDRAPVGGLGKLKMIIAKNGPDTERLPTSHTCFNVLLLPEYSSKEKLKERLLKAITYAKGFGML
For B1, the Km- [1] was 0.039 µM.

B2: GST-E6APF727D (protein)
chain: MATACKRSGEPQSDDIEASRMKRAAAKHLIERYYHQLTEGCGNEACTNEFCASCPTFLRMDNNAAAIKALELYKINAKLCDPHPSKKGASSAYLENSKGAPNNSCSEIKMNKKGARIDFKDVTYLTEEKVYEILELCREREDYSPLIRVIGRVFSSAEALVQSFRKVKQHTKEELKSLQAKDEDKDEDEKEKAACSAAAMEEDSEASSSRIGDSSQGDNNLQKLGPDDVSVDIDAIRRVYTRLLSNEKIETAFLNALVYLSPNVECDLTYHNVYSRDPNYLNLFIIVMENRNLHSPEYLEMALPLFCKAMSKLPLAAQGKLIRLWSKYNADQIRRMMETFQQLITYKVISNEFNSRNLVNDDDAIVAASKCLKMVYYANVVGGEVDTNHNEEDDEEPIPESSELTLQELLGEERRNKKGPRVDPLETELGVKTLDCRKPLIPFEEFINEPLNEVLEMDKDYTFFKVETENKFSFMTCPFILNAVTKNLGLYYDNRIRMYSERRITVLYSLVQGQQLNPYLRLKVRRDHIIDDALVRLEMIAMENPADLKKQLYVEFEGEQGVDEGGVSKEFFQLVVEEIFNPDIGMFTYDESTKLFWFNPSSFETEGQFTLIGIVLGLAIYNNCILDVHFPMVVYRKLMGKKGTFRDLGDSHPVLYQSLKDLLEYEGNVEDDMMITFQISQTDLFGNPMMYDLKENGDKIPITNENRKEFVNLYSDYILNKSVEKQDKAFRRGFHMVTNESPLKYLFRPEEIELLICGSRNLDFQALEETTEYDGGYTRDSVLIREFWEIVHSFTDEQKRLFLQFTTGTDRAPVGGLGKLKMIIAKNGPDTERLPTSHTCFNVLLLPEYSSKEKLKERLLKAITYAKGFGML
B2 was tested, and the Km- [1] was 0.072 µM and the “fold decrease in kcat of polyubiquitin chain formation” value (“fold decrease in kcat” below) (Q05086) was 62-fold decrease in kcat.

B3: GST-E6APY533A (protein)
chain: MATACKRSGEPQSDDIEASRMKRAAAKHLIERYYHQLTEGCGNEACTNEFCASCPTFLRMDNNAAAIKALELYKINAKLCDPHPSKKGASSAYLENSKGAPNNSCSEIKMNKKGARIDFKDVTYLTEEKVYEILELCREREDYSPLIRVIGRVFSSAEALVQSFRKVKQHTKEELKSLQAKDEDKDEDEKEKAACSAAAMEEDSEASSSRIGDSSQGDNNLQKLGPDDVSVDIDAIRRVYTRLLSNEKIETAFLNALVYLSPNVECDLTYHNVYSRDPNYLNLFIIVMENRNLHSPEYLEMALPLFCKAMSKLPLAAQGKLIRLWSKYNADQIRRMMETFQQLITYKVISNEFNSRNLVNDDDAIVAASKCLKMVYYANVVGGEVDTNHNEEDDEEPIPESSELTLQELLGEERRNKKGPRVDPLETELGVKTLDCRKPLIPFEEFINEPLNEVLEMDKDYTFFKVETENKFSFMTCPFILNAVTKNLGLYYDNRIRMYSERRITVLYSLVQGQQLNPYLRLKVRRDHIIDDALVRLEMIAMENPADLKKQLAVEFEGEQGVDEGGVSKEFFQLVVEEIFNPDIGMFTYDESTKLFWFNPSSFETEGQFTLIGIVLGLAIYNNCILDVHFPMVVYRKLMGKKGTFRDLGDSHPVLYQSLKDLLEYEGNVEDDMMITFQISQTDLFGNPMMYDLKENGDKIPITNENRKEFVNLYSDYILNKSVEKQFKAFRRGFHMVTNESPLKYLFRPEEIELLICGSRNLDFQALEETTEYDGGYTRDSVLIREFWEIVHSFTDEQKRLFLQFTTGTDRAPVGGLGKLKMIIAKNGPDTERLPTSHTCFNVLLLPEYSSKEKLKERLLKAITYAKGFGML
For B3, the Km- [1] was 0.04 µM and the “fold decrease in kcat” value (Q05086) was “decreased kcat 10-fold”.

B4: GST-E6APR626A (protein)
chain: MATACKRSGEPQSDDIEASRMKRAAAKHLIERYYHQLTEGCGNEACTNEFCASCPTFLRMDNNAAAIKALELYKINAKLCDPHPSKKGASSAYLENSKGAPNNSCSEIKMNKKGARIDFKDVTYLTEEKVYEILELCREREDYSPLIRVIGRVFSSAEALVQSFRKVKQHTKEELKSLQAKDEDKDEDEKEKAACSAAAMEEDSEASSSRIGDSSQGDNNLQKLGPDDVSVDIDAIRRVYTRLLSNEKIETAFLNALVYLSPNVECDLTYHNVYSRDPNYLNLFIIVMENRNLHSPEYLEMALPLFCKAMSKLPLAAQGKLIRLWSKYNADQIRRMMETFQQLITYKVISNEFNSRNLVNDDDAIVAASKCLKMVYYANVVGGEVDTNHNEEDDEEPIPESSELTLQELLGEERRNKKGPRVDPLETELGVKTLDCRKPLIPFEEFINEPLNEVLEMDKDYTFFKVETENKFSFMTCPFILNAVTKNLGLYYDNRIRMYSERRITVLYSLVQGQQLNPYLRLKVRRDHIIDDALVRLEMIAMENPADLKKQLYVEFEGEQGVDEGGVSKEFFQLVVEEIFNPDIGMFTYDESTKLFWFNPSSFETEGQFTLIGIVLGLAIYNNCILDVHFPMVVYRKLMGKKGTFADLGDSHPVLYQSLKDLLEYEGNVEDDMMITFQISQTDLFGNPMMYDLKENGDKIPITNENRKEFVNLYSDYILNKSVEKQFKAFRRGFHMVTNESPLKYLFRPEEIELLICGSRNLDFQALEETTEYDGGYTRDSVLIREFWEIVHSFTDEQKRLFLQFTTGTDRAPVGGLGKLKMIIAKNGPDTERLPTSHTCFNVLLLPEYSSKEKLKERLLKAITYAKGFGML
In the case of B4, the Km- [1] is reported as 0.15 µM and the “fold decrease in kcat” value (Q05086) is reported as “decreased kcat 155-fold”.

B5: E6AP ligase Hect domain (GST removed by thrombin) (protein)
chain: INEPLNEVLEMDKDYTFFKVETENKFSFMTCPFILNAVTKNLGLYYDNRIRMYSERRITVLYSLVQGQQLNPYLRLKVRRDHIIDDALVRLEMIAMENPADLKKQLYVEFEGEQGVDEGGVSKEFFQLVVEEIFNPDIGMFTYDESTKLFWFNPSSFETEGQFTLIGIVLGLAIYNNCILDVHFPMVVYRKLMGKKGTFRDLGDSHPVLYQSLKDLLEYEGNVEDDMMITFQISQTDLFGNPMMYDLKENGDKIPITNENRKEFVNLYSDYILNKSVEKQFKAFRRGFHMVTNESPLKYLFRPEEIELLICGSRNLDFQALEETTEYDGGYTRDSVLIREFWEIVHSFTDEQKRLFLQFTTGTDRAPVGGLGKLKMIIAKNGPDTERLPTSHTCFNVLLLPEY
B5 gave a Km- [1] of 0.091 µM.

B6: GST-E6AP ligase Hect domain (protein)
chain: INEPLNEVLEMDKDYTFFKVETENKFSFMTCPFILNAVTKNLGLYYDNRIRMYSERRITVLYSLVQGQQLNPYLRLKVRRDHIIDDALVRLEMIAMENPADLKKQLYVEFEGEQGVDEGGVSKEFFQLVVEEIFNPDIGMFTYDESTKLFWFNPSSFETEGQFTLIGIVLGLAIYNNCILDVHFPMVVYRKLMGKKGTFRDLGDSHPVLYQSLKDLLEYEGNVEDDMMITFQISQTDLFGNPMMYDLKENGDKIPITNENRKEFVNLYSDYILNKSVEKQFKAFRRGFHMVTNESPLKYLFRPEEIELLICGSRNLDFQALEETTEYDGGYTRDSVLIREFWEIVHSFTDEQKRLFLQFTTGTDRAPVGGLGKLKMIIAKNGPDTERLPTSHTCFNVLLLPEY
With B6 the Km- [1] was 0.089 µM.

B7: GST-E6APD543A (protein)
chain: MATACKRSGEPQSDDIEASRMKRAAAKHLIERYYHQLTEGCGNEACTNEFCASCPTFLRMDNNAAAIKALELYKINAKLCDPHPSKKGASSAYLENSKGAPNNSCSEIKMNKKGARIDFKDVTYLTEEKVYEILELCREREDYSPLIRVIGRVFSSAEALVQSFRKVKQHTKEELKSLQAKDEDKDEDEKEKAACSAAAMEEDSEASSSRIGDSSQGDNNLQKLGPDDVSVDIDAIRRVYTRLLSNEKIETAFLNALVYLSPNVECDLTYHNVYSRDPNYLNLFIIVMENRNLHSPEYLEMALPLFCKAMSKLPLAAQGKLIRLWSKYNADQIRRMMETFQQLITYKVISNEFNSRNLVNDDDAIVAASKCLKMVYYANVVGGEVDTNHNEEDDEEPIPESSELTLQELLGEERRNKKGPRVDPLETELGVKTLDCRKPLIPFEEFINEPLNEVLEMDKDYTFFKVETENKFSFMTCPFILNAVTKNLGLYYDNRIRMYSERRITVLYSLVQGQQLNPYLRLKVRRDHIIDDALVRLEMIAMENPADLKKQLYVEFEGEQGVAEGGVSKEFFQLVVEEIFNPDIGMFTYDESTKLFWFNPSSFETEGQFTLIGIVLGLAIYNNCILDVHFPMVVYRKLMGKKGTFRDLGDSHPVLYQSLKDLLEYEGNVEDDMMITFQISQTDLFGNPMMYDLKENGDKIPITNENRKEFVNLYSDYILNKSVEKQFKAFRRGFHMVTNESPLKYLFRPEEIELLICGSRNLDFQALEETTEYDGGYTRDSVLIREFWEIVHSFTDEQKRLFLQFTTGTDRAPVGGLGKLKMIIAKNGPDTERLPTSHTCFNVLLLPEYSSKEKLKERLLKAITYAKGFGML
For B7, the Km- [1] was 0.54 µM.
